Assay results reported in the Human Domainome abundance scans (Beltran et al. 2025).

B1: CD2-associated protein, residues 109 to 169; numbered along this chain, Q9Y5K6 (parent)
chain: KKRQCKVLFEYIPQNEDELELKVGDIIDINEEVEEGWWSGTLNNKLGLFPSNFVKELEVTD

Variants of: B1
Assay: abundance fitness (aPCA) (normalised: wild type 0, dead -1); higher = more abundant; growth selection in yeast, the domain comes from the species named
Conditions: Homo sapiens

Abundance fitness of substitutions, site by site:
F9: G -0.294 | H 0.145 | Q 0.083 | L 0.283 | E 0.173 | D -0.097 | W -0.108 | C -0.303 | A 0.026 | I 0.131 | M 0.244 | P -0.449 | R 0.18 | T 0.222 | S 0.004
Q14: L -0.407 | C -0.304 | V -0.338 | A -0.203 | T 0.079 | W -0.788 | H -0.509 | R -0.183 | G -0.337 | S -0.325
V23: K 0.117 | T -0.144 | S -0.414 | F -0.687 | Q -0.071 | H -0.677 | G -0.458 | L -0.369 | A -0.595 | M -0.34 | P -0.08 | I -0.143 | R -0.092
P13: M -0.812 | K -0.233 | G -0.547 | S -0.444 | E -0.747 | R 0.026 | L -0.903 | W -0.881
E18: M -0.503 | P -0.986 | G -0.439 | A -0.783 | S -0.808 | T -0.838 | Q -0.395 | R -0.792 | K -0.411 | Y -0.582 | D -0.738 | V -0.989 | L -0.684
L19: A -0.906 | K -0.727 | S -0.826 | E -0.641 | M -0.319 | G -0.508 | W -1.18 | I -0.063 | R -0.68 | H -0.73
C5: M -0.419 | Q -0.024 | A 0.335 | I -0.656 | G 0.235 | Y -0.097 | W -0.743 | F -0.367 | N -0.596 | H -1.01 | S -0.353 | R -0.547 | V 0.23 | K -0.632 | E -0.688 | L -0.445 | P -0.945 | D -0.626
I26: G -1.03 | M -0.369 | P -0.818 | T -0.495 | L -0.245 | A -0.912 | R -0.813 | C -0.722 | Q -0.744 | H -0.391 | K -0.624 | E -0.484 | S -0.623 | V -0.262 | W -0.442 | D -0.599
I27: A -0.608 | N -0.542 | E -0.951 | M -0.716 | K -1.03 | C -0.692 | H -0.614 | L -0.436 | G -0.939
Y11: G -0.855 | L -0.951 | M -0.897 | S -0.572 | R 0.072 | A -0.539 | Q -0.936 | P -0.481 | K -0.415 | T -0.458 | F -0.767 | D -0.446 | H -0.286 | N -0.344 | E -0.73 | V -0.715 | W -0.318
G24: D -0.252 | A -0.783 | S -0.611 | T -0.559 | F -0.57 | V -0.615 | L -0.781 | R -0.735 | I -0.226 | W -0.764 | E -0.227 | P -0.838 | Y -0.56
V7: L -0.542 | C -0.293 | D -0.748 | G -1.24 | S -0.399 | Q 0.1 | A -0.03 | T -0.9 | F -0.826 | E -0.999 | R -0.193 | P -1.05 | M -0.884
L21: G -0.348 | A -0.838 | R -0.861 | V -0.678 | M -0.319 | S -0.719 | N -0.355 | Q -0.893 | F -0.826 | I -0.4
E10: N -0.064 | R -0.126 | L -0.841 | W -0.904 | D 0.144 | G -0.153 | T -0.265 | A -0.333 | Q -0.146 | K -0.215 | M -0.579 | C -0.266 | S 0.081
K6: L 0.255 | V 0.278 | P -0.761 | Q 0.191 | C 0.088 | S -0.084 | F -0.042 | E -0.06 | A 0.112 | M 0.151 | I 0.309 | R 0.122 | W -0.119 | H -0.02 | N -0.472 | Y 0.219
I12: D -0.303 | V -0.218 | Q -0.267 | P -0.159 | R -0.253 | E -0.122 | A -0.03 | T 0.106 | F -0.026 | S -0.138 | Y 0.065 | K -0.063 | W -0.311
D17: T -0.298 | F -0.249 | L -0.13 | S 0.289 | H -0.343 | E 0.128 | Y -0.192 | K -0.583 | G -0.092 | Q -0.313 | R 0.076 | M 0.001 | P -0.518 | V 0.051 | A -0.142
D25: A -0.339 | R -0.484 | K -0.106 | L -0.856 | Q -0.39 | V -0.733 | M -0.771 | P -0.401 | G -0.835 | E -0.066 | T -0.495 | C -0.649
N15: Y -0.558 | E -0.275 | W -0.483 | T -0.097 | I -0.851 | K -0.041 | L -0.468 | H -0.148 | Q -0.26 | S -0.04 | R 0.153 | F -0.448 | G -0.19 | C -0.3 | A 0.041 | M -0.614 | P -0.639
E16: M 0.147 | D -0.203 | R 0.017 | K -0.434 | W -0.317 | S 0.053 | P -0.191 | V -0.182 | G -0.303 | I -0.552 | Q -0.007 | L -0.403
R3: D -0.283 | E -0.401 | V -0.316 | Y -0.58 | H -0.122 | G -0.21 | Q -0.963 | T -0.109 | W -0.372 | A -0.664 | M -0.228 | S -0.364 | P -0.572 | C -0.38 | I -0.409 | N -0.388 | F -0.451 | K -0.33 | L -0.178
Q4: W -0.117 | V 0.118 | R 0.209 | L 0.271 | Y 0.503 | S 0.134 | E -0.539
E20: W 0.012 | S -0.317 | L -0.157 | M -0.229 | G -0.369 | K -0.002 | V -0.435 | A -0.015 | I -0.502 | H -0.214 | C 0.107 | T -0.409 | R -0.125
K2: T -0.423 | Y -0.183
K22: R -0.244 | T 0.216 | Q -0.406 | S -0.273 | P -0.612 | E -0.66 | V -0.388 | G -0.182 | H 0.219 | L -0.952 | C -0.08 | W -0.448 | I -0.308
L8: P -0.596 | K -0.304 | H -0.401 | I 0.118 | E -0.088 | M 0.33 | Y -0.288 | A -0.34 | S -0.082 | T -0.192 | W -0.49 | G -0.133 | Q -0.437 | R -0.345 | D -0.267 | V -0.035 | N -0.417
